US20220017636A1 (Amgen, published 2022)

Assays:
Assay in all cases: flow cytometry, peptide-loaded T2 cells;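 also: binding of single-chain Fv antibody constructs, raised in XenoMouse, to peptide-pulsed T2 cells measured by flow cytometry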
[1] = molecular target: T1, SLK peptide complexed with HLA-A*02:01 on T2 cells (human)
T1 construct: whole, on cells
Experimental: (§1) Binding of pMAGE-HLA scFv constructs, generated from the XenoMouse, on peptide loaded T2 cells was evaluated by flow cytometry.

[2] = molecular target: T2, MAGEB2 peptide … (SEQ ID NO: 1) complexed with HLA-A*02:01 on the cell surface (human)
T2 construct: whole, on cells; also called pMAGE-HLA; MAGEB2 pMHC
Experimental: as §1

[3] = molecular target: T3, MB peptide complexed with HLA-A*02:01 on T2 cells (human)
T3 construct: whole, on cells
Experimental: as §1

[4] = molecular target: T4, ADF peptide complexed with HLA-A*02:01 on T2 cells (human)
T4 construct: whole, on cells
Experimental: as §1

[5] = molecular target: T5, KEA peptide complexed with HLA-A*02:01 on T2 cells (human)
T5 construct: whole, on cells
Experimental: as §1

[6] = molecular target: T6, COX14 peptide complexed with HLA-A*02:01 on T2 cells (human)
T6 construct: whole, on cells
Experimental: as §1

[7] = molecular target: T7, CNDP2 peptide complexed with HLA-A*02:01 on T2 cells (human)
T7 construct: whole, on cells; also called CNPD2
Experimental: as §1

[8] = molecular target: T8, MYOF peptide complexed with HLA-A*02:01 on T2 cells (human)
T8 construct: whole, on cells
Experimental: as §1

[9] = molecular target: T9, STXBP5 peptide complexed with HLA-A*02:01 on T2 cells (human)
T9 construct: whole, on cells
Experimental: as §1

[10] = molecular target: T10, DPYSL4 peptide complexed with HLA-A*02:01 on T2 cells (human)
T10 construct: whole, on cells
Experimental: as §1

Binder | Signal/background [1] | Signal/background [2] | Signal/background [3] | Signal/background [4] | Signal/background [5] | Signal/background [6] | Signal/background [7] | Signal/background [8] | Signal/background [9] | Signal/background [10]
18179-D7 (scFv, scFv in bacterial lysate, detected with anti-Flag M2) scFv: EVQLLESGGGLVQPGGSLRLSCAASGFTFSNAWMSWVRQAPGKGLEWVGRIKGNTYGGTTDYAAPVKGRFTISRDDSKNTLFLQMNSLKTEDTAVYYCTTPSYSGSYYNYFSVMDVWGQGTTVTVSSGGGGSGGGGSGGGGSELVMTQSPSSLSASVGDRVTITCRTSQSISSYLNWYQQKPGRAPKLLIFAASSLQGGVPSRFSGSGSGTDFTLTISSLQPEDFATYYCQQTYSMPFTFGPGTKVDIK | 1.1 | 281 | 1 | 1 | 1 | 1 | 1.1 | 1 | 1 | 1.1
18181-A6 (scFv, scFv in bacterial lysate, detected with anti-Flag M2) scFv: EVQLLESGGGLVQPGGSLRLSCAASGFTFSNAWMSWVRQAPGKGLEWVGRIKGNTYGGTTDYAAPVKGRFTISRDDSKNTLYLQMNSLKTEDTAVYYCTTPSYSGSYYNYFSVMDVWGQGTTVTVSSGGGGSGGGGSGGGGSELVMTQSPSSLSASVGDRVTITCRASQSISSYLNWYQQKPGRAPKLLIFAASSLQGGVPSRFSGSGSGTDFTLTISSLQPEDFATYYCQQTYSMPFTFGPGTKLEIK | 1.1 | 430 | 1 | 1 | 0.9 | 0.9 | 1 | 1.1 | 1 | 1
18179-B12 (scFv, scFv in bacterial lysate, detected with anti-Flag M2) scFv: EVQLLESGGGLVQPGGSLRLSCAASGFTFSNAWMSWVRQAPGKGLEWVGRIKGNTYGGTTDYAAPVKGRFTISRDDSKNTLFLQMNSLKTEDTAVYYCTTPSNSGSYYNYFSVMDVWGQGTTVTVSSGGGGSGGGGSGGGGSELVMTQSPSSLSASVGDRVTITCRTSQSISSYLNWFQQKPGKAPKLLIFAASSLQSGVPSRFSGSGSGTDFTLTISSLQPEDFATYYCQQTYSMPFTFGPGTKVEIK | 1 | 368 | 1 | 1 | 1 | 1 | 1 | 1 | 1 | 1
18179-H7 (scFv, scFv in bacterial lysate, detected with anti-Flag M2) scFv: EVQLLESGGGLVQPGGSLRLSCAASGFTFSNAWMSWVRQAPGKGLEWVGRIKSKTYGGTTDYAAPVKGRFTISRDDSKNTLYLQMNSLKTEDTAVYYCTTPSYSGSYYNYFSVMDVWGQGTTVTVSSGGGGSGGGGSGGGGSELQMTQSPSSLSASVGDRVTITCRTSQSISSYLNWFQQKPGKAPKLLIFAASSLQSGVPSRFSGSGSGTDFTLTISSLQPEDFATYYCQQSYSSPFTFGPGTKVEIK | 0.9 | 399 | 1 | 1.1 | 1 | 1 | 1 | 1.1 | 1 | 1
18179-A7 (scFv, scFv in bacterial lysate, detected with anti-Flag M2) scFv: EVQLLESGGGLVKPGGSLRLSCAASGFTFSNAWMSWVRQAPGKGLEWVGRIKGNTYGGTTDYAAPVKGRFTISRDDSKNTLFLQMNSLKTEDTAVYYCTTPSYSGSYYNYFSVMDVWGQGTTVTVSSGGGGSGGGGSGGGGSELVMTQSPSSLSASVGDRVTITCRTSQSISSYLNWYQQKPGRAPKLLIFAASSLQGGVPSRFSGSGSGTDFTLTISSLQPEDFATYYCQQTYSMPFTFGPGTKVDIK | 1 | 267 | 1.1 | 1 | 0.9 | 1 | 1 | 1 | 1 | 1
18179-E1 (scFv, scFv in bacterial lysate, detected with anti-Flag M2) scFv: EVQLLESGGGLVQPGGSLRLSCAASGFTFSNAWMSWVRQAPGKGLEWVGRIKGNTYGGTTDYAAPVKGRFTISRDDSKNTLYLQMNSLKTEDTAVYYCTTPSYSGSYYNYFSVMDVWGQGTTVTVSSGGGGSGGGGSGGGGSELVMTQSPSSLSASVGDRVTITCRTSQSISSYLNWYQQKPGRAPKLLIFAASSLQGGVPSRFSGSGSGTDFTLTISSLQPEDFATYYCQQTYSMPFTFGPGTKVDIK | 1.1 | 419 | 1 | 0.9 | 1 | 0.9 | 1 | 1 | 1 | 1
18179-D11 (scFv, scFv in bacterial lysate, detected with anti-Flag M2) scFv: EVQLLESGGGLVKPGGSLRLSCAASGFTFSNAWMSWVRQAPGKGLEWVGRIKGNTYGGTTDYAAPVKGRFTISRDDSKNTLFLQMNSLKTEDTAVYYCTTPSYSGSYYNYFSVMDVWGQGTTVTVSSGGGGSGGGGSGGGGSELQMTQSPSSLSASVGDRVTITCRTSQSISSYLNWYQQKPGRAPKLLIFAASSLQGGVPSRFSGSGSGTDFTLTISSLQPEDFATYYCQQTYSMPFTFGPGTKVDIK | 1 | 345 | 1 | 1 | 1 | 1 | 1 | 1.1 | 1 | 1.1
18081-E7 (scFv, scFv in bacterial lysate, detected with anti-Flag M2) scFv: EVQLLESGPGLVKPSETLSLTCTVSGDSISSSRYYWGWIRQPPGKGLEWIGSIYYSGSTYYNPSLKSRVTISVDTSKNQFSLKLSSVTAADTAVYYCARGIFGVITYFDYWGQGTLVTVSSGGGGSGGGGSGGGGSELVMTQTPDSLAVSLGERATINCKSSQSVLYSSNNKNYLAWYQQKPGQPPKLLIYWASTRESGVPDRFSGSGSGTDFTLTISSLQAEDVAVYYCQQYYSTPLTFGGGTKVEIK | 1.4 | 298 | 1 | 1 | 1 | 1.1 | 1 | 1.1 | 1.1 | 1.2
18081-B9 (scFv, scFv in bacterial lysate, detected with anti-Flag M2) scFv: EVQLLESGPGLVKPSETLSLTCTVSGDSISSSRYYWGWIRQPPGKGLEWIGSIYYSGSTYYNPSLKSRVTISVDTSKNQFSLKLSSVTAADTAVYYCARGIFGVITYFDYWGQGTLVTVSSGGGGSGGGGSGGGGSELVMTQSPDSLAVSLGERATINCKSSQSVLYSSNNKNYLAWYQQKPGQPPKLLIYWASTRESGVPDRFSGSGSGTDFTLTISSLQAEDVAVYYCQQFYSTPITFGQGTRLEIK | 1.1 | 153 | 1.1 | 1 | 1.1 | 1 | 1 | 1.1 | 1 | 1.1
18081-H11 (scFv, scFv in bacterial lysate, detected with anti-Flag M2) scFv: EVQLLESGPALVKPTQTLTLTCTFSGFSFTTHKMGVDWIRQPPGKALEWLALIYWNDDKRYSPSLQSRLTITKDTSKNQVVLTMTNMDPVDTATYYCAYRRYNWNYENWFDPWGQGTLVTVSSGGGGSGGGGSGGGGSELQMTQSPSSLSASVGDRVTITCQASQDISNYLNWYQQKPGKAPKLLIYAASSLQSGVPSRFSGSGSGTDFTLTISSLQPEDFATYYCQQSYTTPFTFGPGTKVEIK | 1.1 | 32 | 1 | 0.9 | 0.9 | 1 | 0.9 | 1.1 | 0.9 | 1
18089-C9 (scFv, scFv in bacterial lysate, detected with anti-Flag M2) scFv: EVQLLESGPTLVKPTQTLTLTCTFSGFSFTTHKMGVDWIRQPPGKALEWLALIYWNDDKRYSPSLQSRLTITKDTSKNQVVLTMTNMDPVDTATYYCAYRRYNWNYENWFDPWGQGTLVTVSSGGGGSGGGGSGGGGSELQMTQSPSSLSASVGDRVTITCRASQFISSYLNWYQQKPGKAPKLLIYAASSLQSGVPSRFSGRGSGTDFTLTISSLQPEDFATYYCQQSYSTPFTFGPGTKVEIK | 1.1 | 39 | 1.1 | 1 | 1 | 1 | 1 | 1 | 1 | 0.9
18089-D11 (scFv, scFv in bacterial lysate, detected with anti-Flag M2) scFv: EVQLLESGPVLVKPTQTLTLTCTFSGFSFTTHKMGVDWIRQPPGKALEWLALIYWNDDKRYNPSLQSRLTITKDTSKNQVVLTMTNMDPVDTATYYCAYRRYNWNYENWFDPWGQGTLVTVSSGGGGSGGGGSGGGGSELVMTQSPSSLSASVGDRVTITCRASQSISNYFNWYQQKPGKAPKLLIYAASSLQSGVPSRFSGSGSGTDFTLTISSLQPEDFATYYCQQSYITPFTFGGGTKLEIK | 1.2 | 78 | 1.2 | 1.1 | 1 | 1.1 | 1 | 1.1 | 1.1 | 1.1
